Results as given in PMC7957537 (2021).

How the values were obtained:
recombinant human VEGFR2 [1] = target: T1, recombinant human VEGFR2 (human, UniProt P35968 20-764); assay: SPR
T1 chain: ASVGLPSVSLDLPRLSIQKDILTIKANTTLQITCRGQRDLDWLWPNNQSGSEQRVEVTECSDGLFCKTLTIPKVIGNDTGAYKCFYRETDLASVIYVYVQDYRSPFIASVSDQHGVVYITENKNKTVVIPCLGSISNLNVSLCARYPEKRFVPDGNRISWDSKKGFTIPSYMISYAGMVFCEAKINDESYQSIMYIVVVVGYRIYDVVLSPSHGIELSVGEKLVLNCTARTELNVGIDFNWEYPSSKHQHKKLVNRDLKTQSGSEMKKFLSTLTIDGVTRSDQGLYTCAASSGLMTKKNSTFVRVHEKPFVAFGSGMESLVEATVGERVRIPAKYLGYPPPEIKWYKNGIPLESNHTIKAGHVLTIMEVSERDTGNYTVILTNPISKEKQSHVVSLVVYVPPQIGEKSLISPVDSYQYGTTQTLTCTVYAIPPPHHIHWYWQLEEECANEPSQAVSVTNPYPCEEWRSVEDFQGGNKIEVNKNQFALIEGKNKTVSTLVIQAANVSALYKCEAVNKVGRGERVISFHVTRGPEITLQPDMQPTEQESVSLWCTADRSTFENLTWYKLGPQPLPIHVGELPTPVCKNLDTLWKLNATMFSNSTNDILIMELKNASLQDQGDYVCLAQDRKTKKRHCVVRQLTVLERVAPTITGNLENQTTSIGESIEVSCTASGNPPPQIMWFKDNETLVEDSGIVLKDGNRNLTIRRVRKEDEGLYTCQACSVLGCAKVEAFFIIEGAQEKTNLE

recombinant human VEGFR2 [2] = target: T1, recombinant human VEGFR2; assay: SPR

B1: ramucirumab (Cyramza) (antibody, V domains shown)
VH: EVQLVQSGGGLVKPGGSLRLSCAASGFTFSSYSMNWVRQAPGKGLEWVSSISSSSSYIYYADSVKGRFTISRDNAKNSLYLQMNSLRAEDTAVYYCARVTDAFDIWGQGTMVTVSS
VL: DIQMTQSPSSVSASIGDRVTITCRASQGIDNWLGWYQQKPGKAPKLLIYDASNLDTGVPSRFSGSGSGTYFTLTISSLQAEDFAVYFCQQAKAFPPTFGGGTKVDIK
koff (recombinant human VEGFR2 [1]): 0.000102 s⁻¹ | Kd (recombinant human VEGFR2 [2]): 0.949 nM
